Broadly, the Kd is a measure of binding affinity in units of concentration. Read a low Kd as higher affinity. In general, stoichiometry N refers to a count of units in the complex or per binding partner.

“And” between values parts separate entries of the source, which are not always exact repeats. Identical values can stand only once.

Experimental findings from PMC8814668, “Mechanism of Atg9 recruitment by Atg11 in the cytoplasm-to-vacuole targeting pathway” (The Journal of Biological Chemistry, 2022) are described below.

For assay [1], the target named is T1, EGFP-Atg11 (full-length yeast Atg11) (yeast (S. cerevisiae), UniProt Q12527 1-1178).
T1 construct: Atg11, S. cerevisiae, full length, 135 kDa; also called EGFP tagged Atg11; not shown: EGFP, N-terminal, kept
T1 sequence (looked up): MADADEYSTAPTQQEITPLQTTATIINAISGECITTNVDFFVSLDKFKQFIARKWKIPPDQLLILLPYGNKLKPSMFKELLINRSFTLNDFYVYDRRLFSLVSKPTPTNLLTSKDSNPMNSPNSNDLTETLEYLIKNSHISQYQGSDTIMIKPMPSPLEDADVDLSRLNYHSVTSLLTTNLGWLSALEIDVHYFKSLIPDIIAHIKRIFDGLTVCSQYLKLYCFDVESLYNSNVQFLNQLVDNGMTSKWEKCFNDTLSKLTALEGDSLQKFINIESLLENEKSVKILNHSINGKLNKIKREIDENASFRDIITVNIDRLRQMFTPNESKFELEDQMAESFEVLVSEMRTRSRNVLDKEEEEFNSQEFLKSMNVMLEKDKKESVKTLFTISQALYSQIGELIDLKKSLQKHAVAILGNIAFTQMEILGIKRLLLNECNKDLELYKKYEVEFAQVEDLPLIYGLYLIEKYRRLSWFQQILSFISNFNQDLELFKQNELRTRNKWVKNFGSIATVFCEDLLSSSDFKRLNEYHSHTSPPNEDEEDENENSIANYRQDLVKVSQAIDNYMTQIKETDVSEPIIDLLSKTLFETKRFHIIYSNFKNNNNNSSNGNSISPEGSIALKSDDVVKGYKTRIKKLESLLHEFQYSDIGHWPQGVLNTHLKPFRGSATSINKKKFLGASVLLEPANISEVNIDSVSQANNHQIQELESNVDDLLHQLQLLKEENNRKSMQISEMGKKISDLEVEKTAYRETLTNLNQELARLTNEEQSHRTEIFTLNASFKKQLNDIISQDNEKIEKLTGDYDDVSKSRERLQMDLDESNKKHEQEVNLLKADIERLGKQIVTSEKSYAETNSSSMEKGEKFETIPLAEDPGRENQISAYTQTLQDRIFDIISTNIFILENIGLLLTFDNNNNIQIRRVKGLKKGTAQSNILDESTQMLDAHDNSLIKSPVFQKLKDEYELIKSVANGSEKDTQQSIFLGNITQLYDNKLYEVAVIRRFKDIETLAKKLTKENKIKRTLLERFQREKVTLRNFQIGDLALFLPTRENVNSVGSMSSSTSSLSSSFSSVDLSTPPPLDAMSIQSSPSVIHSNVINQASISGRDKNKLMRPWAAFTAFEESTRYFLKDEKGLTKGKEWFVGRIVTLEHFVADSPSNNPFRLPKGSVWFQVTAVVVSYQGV
Briefly: NMR titration; 1H-15N HSQC of 0.2 mM labelled Atg9-NTD, unlabelled EGFP-Atg11 added stepwise (0.02, 0.04, 0.08 mM); 20 mM Bis-Tris pH 6, 300 mM NaCl; 298 K, 600 MHz; read-out: loss of peak intensity. The conditions noted are these: both partners purified.

Assay [2] concerns the target T1, EGFP-Atg11 (full-length yeast Atg11). Briefly: ITC; Atg9-NTD (300 to 500 μM, syringe) into EGFP-Atg11 (50 to 100 μM, cell); 25 °C; 20 mM Tris pH 7.4, 300 mM NaCl; single binding site; two replicates. The conditions noted are these: both partners purified.

B1: Atg9-NTD (29–255)-mCherry (domain or fragment, S. cerevisiae, UniProt Q12142 29-255, looked up)
chain: VNPSLNSQEMSNFPLPDIERGSSLLHSTNDSREDVDENDLRVPESDQGTSTEEEDEVDEEQVQAYAPQISDGLDGDHQLNSVTSKENVLETEKSNLERLVEGSTDDSVPKVGQLSSEEEEDNEFINNDGFDDDTPLFQKSKIHEFSSKKSNTIEDGKRPLFFRHILQNNRPQRDTQKLFTSSNAIHHDKDKSANNGPRNINGNQKHGTKYFGSATQPRFTGSPLNNT
notes: also called shorter construct of Atg9-NTD; not shown: mCherry, C-terminal, kept
For the molecule B1, in assay [1], the binding result is reported as “binds”.

B2: Atg9-NTD-(1–255)-mCherry, wild type (domain or fragment, S. cerevisiae, UniProt Q12142 1-255, looked up)
chain: MERDEYQLPNSHGKNTFLSRIFGLQSDEVNPSLNSQEMSNFPLPDIERGSSLLHSTNDSREDVDENDLRVPESDQGTSTEEEDEVDEEQVQAYAPQISDGLDGDHQLNSVTSKENVLETEKSNLERLVEGSTDDSVPKVGQLSSEEEEDNEFINNDGFDDDTPLFQKSKIHEFSSKKSNTIEDGKRPLFFRHILQNNRPQRDTQKLFTSSNAIHHDKDKSANNGPRNINGNQKHGTKYFGSATQPRFTGSPLNNT
notes: mCherry is named for the bead assay; also called mCherry-tagged Atg9-NTD; not shown: mCherry, C-terminal, kept
Regarding B2, in assay [2], the Kd came to 1090 nM; the dH was -24.6 ± 5.6 kJ/mol; the “stoichiometry N” value is 0.931 and 0.94.

B3: Atg9-NTD(1–285) (domain or fragment, S. cerevisiae, UniProt Q12142 1-285, looked up)
chain: MERDEYQLPNSHGKNTFLSRIFGLQSDEVNPSLNSQEMSNFPLPDIERGSSLLHSTNDSREDVDENDLRVPESDQGTSTEEEDEVDEEQVQAYAPQISDGLDGDHQLNSVTSKENVLETEKSNLERLVEGSTDDSVPKVGQLSSEEEEDNEFINNDGFDDDTPLFQKSKIHEFSSKKSNTIEDGKRPLFFRHILQNNRPQRDTQKLFTSSNAIHHDKDKSANNGPRNINGNQKHGTKYFGSATQPRFTGSPLNNTNRFTKLFPLRKPNLLSNISVLNNTPEDRIN
notes: Atg9, S. cerevisiae, N-terminal disordered domain, residues 1-285; The EGFP tag was cleaved with 3C protease for the sample of the resonance assignment; also called Atg9 NTD (residues 1–285); fragment 1 to 285
Consider B3, for which the binding result in assay [1] is “binds”.
